Source: US20250297004A1, “NECTIN-4 BINDING AGENTS” (INNATE PHARMA, priority 2022, published 2025)

How the values were obtained:
[1] = molecular target: T1, human Nectin-4 expressed on cells (human, UniProt Q96NY8 32-510); test: flow cytometry (FL2-A) on SUM185 human breast cancer cells; unstained cells 71.5
T1 sequence: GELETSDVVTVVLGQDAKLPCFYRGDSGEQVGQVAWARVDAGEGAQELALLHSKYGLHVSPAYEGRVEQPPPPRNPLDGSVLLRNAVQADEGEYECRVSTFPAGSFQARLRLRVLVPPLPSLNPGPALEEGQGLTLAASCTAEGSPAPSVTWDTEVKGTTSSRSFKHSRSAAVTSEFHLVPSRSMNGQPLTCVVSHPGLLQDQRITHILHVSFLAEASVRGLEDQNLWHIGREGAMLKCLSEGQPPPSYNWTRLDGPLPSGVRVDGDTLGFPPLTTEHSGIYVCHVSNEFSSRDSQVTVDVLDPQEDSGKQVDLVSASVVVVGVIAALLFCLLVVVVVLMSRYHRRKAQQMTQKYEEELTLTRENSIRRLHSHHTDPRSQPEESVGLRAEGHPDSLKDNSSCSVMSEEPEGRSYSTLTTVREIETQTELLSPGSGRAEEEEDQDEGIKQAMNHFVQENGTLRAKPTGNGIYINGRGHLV

[2] = molecular target: HER2 on human breast cancer tumor cells (human) (UniProt P04626); test: as above
[3] = molecular target: T1, human Nectin-4 expressed on cells; test: flow cytometry on SUM185 cells, antibody at 10 ug/ml
[4] = molecular target: T1, human Nectin-4 expressed on cells; test: flow cytometry on SUM190 cells, antibody at 10 ug/ml
[5] = system: UC (patients); settings: EV-201 Phase 2 study; cited from earlier work
[6] = system: SUM185 cells; test: Comparative in vitro killing of SUM185 cells (model of anti-HER2 resistance), CTG; type: cell-based, human; settings: 5 days, 5E7 ADC DAR=8, PADCEV DAR=4, FIG. 5
Experimental: This setting was used as a model of anti-HER2 resistance. SUM185 cells express Nectin-4 at relatively high levels, with Nectin-4 expression levels about twice that of HER2 in these cells (see Example 1). In this experiment, the 5E7 antibody was tested as an ADC having DAR=8 along with PADCEV™ (DAR=4, specification for FDA-approved PADCEV™) and control antibodies all conjugated with the same toxin at equivalent drug to antibody ratios. 5E7 was conjugated with a camptothecin analogue Dxd via the ggfg-Dxd linker.
Briefly, dose-ranges of each tested Ab (starting point 150 nM, dilution factor 2 for 3 points, then 5 for 5 points) were incubated on cells for 5 days before cell viability measurement by addition of CTG substrate. Luminescence vs. Ab concentration was plotted on graph.
For each ADC, a concentration range of ADC was incubated with nectin-4-expressing cells. After incubation, CTG substrate was added at 1:1 ratio and the luminescent signal was read with a plate reader (Enspire), allowing quantification of the ATP present (indicator of metabolically active cells) which was proportional to cell viability.

[7] = system: MC-38 cells endogenously expressing MDR1 P-glycoprotein (Pgp), engineered to express Nectin-4; test: In vitro efficacy of ADCs in Pgp-expressing cancer model (CTG); type: cell-based, murine; settings: for anti-tumor activity in presence or absence of the Pgp inhibitor cyclosporine: 150 nM ADC, normalized to control antibody, cyclosporin A 5 μM, FIG. 10B
Experimental: MC-38 cells that endogenously express MDR1 P-glycoprotein (Pgp) were engineered to express Nectin-4 and cultured in DMEM+10% FBS. Cells were either treated with vehicle (DSMO) or with cyclosporin A (5 μM, stock solution in DMSO) known to act as an inhibitor of Pgp, in presence of ADCs.
The ADCs and the equivalent isotype control ADCs were used at dose range from 150 to 2.3 10^−3 nM. After five days of co-incubation with cells, cell viability was measured by addition of Cell Titer Glo™ (CTG) substrate. Luminescence vs. Ab concentration was plotted.

[8] = system: SUM190 cells subcutaneously engrafted in CB17-SCID mice; test: In vivo efficacy of Dxd and exatecan ADCs in SUM190 model; parameters: species or system mouse; settings: single i.v. injection 10 mg/kg; FIG. 9C
Experimental: Human breast cancer cell line SUM190PT was cultured in the following cell culture medium containing Ham's F12, FBS 1 g/L, HEPES 10 mM, Ethanolamine 5 mM, Insulin 5 μg/mL, Hydrocortisone 1 μg/mL, Apo-Transferrin 5 μg/mL, Triiodo Thyronine (T3) 6.7 ng/ml, Sodium selenite 8.7 ng/ml.
Immunodeficient CB17-SCID mice were used at 7 to 8 weeks of age. […] The ggfg-Dxd linker will release Dxd (deruxtecan) upon cleavage and the PEG (8U)-Val-Ala-PAB-Exatecan linker will release exatecan upon cleavage.
SUM190 cells were subcutaneously engrafted in CB17-SCID immunodeficient mice at the dose of 0.5 million in 100 μl of Matrigel containing growth factor diluted at ½ in PBS. At day 21, when tumors reached a mean volume at 146.9±63.2 mm^3 or 213.2±77.5 mm^3 depending on the experiment, mice were randomized into groups of 8 or 9 mice depending on the experiment and treated intravenously with a single injection of 3 or 10 mg/kg body weight ADC or PBS as control. Tumor growths were followed twice a week. Kaplan Meier survival curves were established by using GraphPad Prism V7 software according to the following criteria: when the tumor volume reached 1500 mm^3, mice were euthanized and considered dead on the day of sacrifice (D). When tumors were highly necrotic, mice were euthanized and considered dead on the same day (D).

[9] = molecular target: T2, cynomolgus Nectin-4 protein expressed on CHO cells (cynomolgus, UniProt Q96NY8 32-510 (human entry)); test: flow cytometry on CHO cells expressing cynomolgus Nectin-4, Median MFI (PE)
T2 construct: also called Cyno Nectin-4 V5
T2 chain: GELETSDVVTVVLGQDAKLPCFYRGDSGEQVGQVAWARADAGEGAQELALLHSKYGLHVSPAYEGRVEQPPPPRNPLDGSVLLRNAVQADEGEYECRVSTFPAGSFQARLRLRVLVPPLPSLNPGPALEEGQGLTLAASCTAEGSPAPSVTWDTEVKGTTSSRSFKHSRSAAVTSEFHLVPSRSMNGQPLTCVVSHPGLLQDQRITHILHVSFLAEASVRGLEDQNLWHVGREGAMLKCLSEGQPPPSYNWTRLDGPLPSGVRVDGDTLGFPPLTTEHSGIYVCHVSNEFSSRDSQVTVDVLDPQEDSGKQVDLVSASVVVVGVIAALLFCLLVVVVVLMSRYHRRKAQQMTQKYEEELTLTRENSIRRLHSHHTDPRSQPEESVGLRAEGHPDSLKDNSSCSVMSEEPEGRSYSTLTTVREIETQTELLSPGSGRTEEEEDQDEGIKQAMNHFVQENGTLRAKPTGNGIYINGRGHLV
Experimental: (§1) Anti-Nectin-4 antibodies were tested by flow cytometry for binding to different CHO cell lines made to express respectively the mouse, cynomolgus and rat Nectin-4 protein (including an N-terminal V5 tag not shown in the sequences below).

[10] = molecular target: T3, rat Nectin-4 protein expressed on CHO cells (rat, UniProt Q8R007 31-508 (mouse entry)); test: flow cytometry on CHO cells expressing rat Nectin-4, Median MFI (PE)
T3 construct: no cleavage site is stated; also called Rat Nectin-4 V5
T3 chain: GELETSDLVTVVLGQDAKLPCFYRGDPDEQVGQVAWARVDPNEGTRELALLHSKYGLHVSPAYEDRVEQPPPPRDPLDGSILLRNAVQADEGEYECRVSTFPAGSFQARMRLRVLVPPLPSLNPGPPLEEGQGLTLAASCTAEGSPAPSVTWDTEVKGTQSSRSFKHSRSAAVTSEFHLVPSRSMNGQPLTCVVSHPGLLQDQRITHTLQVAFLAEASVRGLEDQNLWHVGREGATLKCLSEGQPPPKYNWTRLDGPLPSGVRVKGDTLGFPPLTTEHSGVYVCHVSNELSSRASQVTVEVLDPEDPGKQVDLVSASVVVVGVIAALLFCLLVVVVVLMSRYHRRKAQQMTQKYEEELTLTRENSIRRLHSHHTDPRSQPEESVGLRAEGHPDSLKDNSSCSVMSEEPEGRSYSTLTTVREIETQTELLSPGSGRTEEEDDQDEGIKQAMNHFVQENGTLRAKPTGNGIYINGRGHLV
Experimental: as §1

Control Antibody
Median of fluo. [1]: 94.5 | Median of fluo. [2]: 94.5

anti-Nectin-4 antibody (ASG-22ME modified as a human IgG1 isotype containing a N297Q mutation)
MFI [3]: 4330 MFI | MFI [4]: 991 MFI

PADCEV™
CR (complete response rate) [5]: 12% | ORR (objective response rate) [5]: 44% | discontinuation due to clinical symptoms [5]: 5% | discontinuation due to progressive disease as assessed by RECIST [5]: 48% | patients that discontinued experienced adverse events, notably neuropathy [5]: 18% | killing of SUM185 cells / reduction of cell viability [6]: able to kill the SUM185 more efficiently than ENHERTU™ | anti-tumor activity in presence or absence of the Pgp inhibitor cyclosporine [7]: negatively affected by Pgp

B1: 5E7-exatecan: 5E7 conjugated to the exatecan linker PEG (8U)-Val-Ala-PAB-Exatecan (drawing 79), DAR=8 (conjugate)
VH: QVQLQQPGAELVKPGASVKLSCKASGYIFTSYWMHWVKQRPGQGLEWIGEIDPSDSYTNYNQKFKGKATLTLDKSSSTTYMQLSSLTSEDSAVYYCVRGYGNYGDYWGQGTTLTVSSASTKGP
VL: DVVMTQAAFSNPVTLGTSASISCRSSKSLLHSNGITYLYWYLQKPGQSPQLLIYQMSNLASGVPDRFSSSGSGTDFTLRISRVEAEDVGVYYCAQNLELPWTFGGGTKLEIKRTVAAP
efficiency in controlling tumor growth in mice [8]: higher efficiency in controlling tumor growth in mice compared 5E7 conjugated with ggfg-Dxd | anti-tumor activity in presence or absence of the Pgp inhibitor cyclosporine [7]: highly effective | decrease of cell viability (luminescence) ([7]; MC-38 Pgp/Nectin-4 cells, 5 days, setting of drug resistance, FIG. 10A): highly potent to decrease cell viability

B2: enfortumab (antibody, V domains shown)
VH: EVQLVESGGGLVQPGGSLRLSCAASGFTFSSYNMNWVRQAPGKGLEWVSYISSSSSTIYYADSVKGRFTISRDNAKNSLSLQMNSLRDEDTAVYYCARAYYYGMDVWGQGTTVTVSS
VL: DIQMTQSPSSVSASVGDRVTITCRASQGISGWLAWYQQKPGKAPKFLIYAASTLQSGVPSRFSGSGSGTDFTLTISSLQPEDFATYYCQQANSFPPTFGGGTKVEIKR
EC50 (read off the curve) [9]: ~0.08 µg/mL | EC50 (read off the curve) [10]: ~0.2 µg/mL
